Experimental data published in patent publication US20160090402A1 (BIOMERIEUX, published 2016).

B1: soluble recombinant SU subunit of the HERV-W envelope (EnvSU, 1-317) (ligand)
chain: APPPCRCMTSSSPYQEFLWRMQRPGNIDAPSYRSLSKGTPTFTAHTHMPRNCYHSATLCMHANTHYWTGKMINPSCPGGLGVTVCWTYFTQTGMSDGGGVQDQAREKHVKEVISQLTRVHGTSSPYKGLDLSKLHETLRTHTRLVSLFNTTLTGLHEVSAQNPTNCWICLPLNFRPYVSIPVPEQWNNFSTEINTTSVLVGPLVSNLEITHTSNLTCVKFSNTTYTTNSQCIRWVTPPTQIVCLPSGIFFVCGTSAYRCLNGSSESMCFLSFLVPPMTIYTEQDLYSYVISKPAAARRGSHHHHHH
notes: range 21-317; Used as filtered HEK293T supernatant; also called soluble SU; SU subunit (1-317)
B2: soluble recombinant envelope protein Env-Gp60 (Gp60, 1-435) (ligand)
chain: not shown
notes: range 21-435; Used as filtered HEK293T supernatant; the construct is printed as 1-435; also called soluble envelope

Experiments:
hASCT1 receptor = target: T1, hASCT1 receptor (human, UniProt P43007 1-532); assay: flow cytometry on XChASCT1 cells, anti-RGS-His detection
T1 construct: whole, on cells
T1 sequence: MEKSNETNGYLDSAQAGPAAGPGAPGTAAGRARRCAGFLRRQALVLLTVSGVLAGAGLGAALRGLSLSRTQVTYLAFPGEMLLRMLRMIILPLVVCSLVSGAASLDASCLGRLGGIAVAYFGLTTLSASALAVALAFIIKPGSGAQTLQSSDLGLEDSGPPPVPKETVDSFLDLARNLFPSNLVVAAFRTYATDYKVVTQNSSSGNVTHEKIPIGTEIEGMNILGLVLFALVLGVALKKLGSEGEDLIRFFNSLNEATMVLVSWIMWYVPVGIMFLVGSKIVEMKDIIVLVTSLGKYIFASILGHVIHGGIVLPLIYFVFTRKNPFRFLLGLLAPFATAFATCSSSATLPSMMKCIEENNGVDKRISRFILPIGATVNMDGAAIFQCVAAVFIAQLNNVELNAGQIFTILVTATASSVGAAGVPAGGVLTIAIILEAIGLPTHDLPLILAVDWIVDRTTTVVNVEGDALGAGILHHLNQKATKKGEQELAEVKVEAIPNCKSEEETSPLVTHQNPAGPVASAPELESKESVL

[1] = target: T2, hASCT2 receptor (human type 2 sodium-dependent neutral amino acid transporter) (human, UniProt Q15758 1-541); assay: flow cytometry on XChASCT2 cells and on TE671 and TE671galv cells, anti-RGS-His detection
T2 construct: whole, on cells
T2 sequence: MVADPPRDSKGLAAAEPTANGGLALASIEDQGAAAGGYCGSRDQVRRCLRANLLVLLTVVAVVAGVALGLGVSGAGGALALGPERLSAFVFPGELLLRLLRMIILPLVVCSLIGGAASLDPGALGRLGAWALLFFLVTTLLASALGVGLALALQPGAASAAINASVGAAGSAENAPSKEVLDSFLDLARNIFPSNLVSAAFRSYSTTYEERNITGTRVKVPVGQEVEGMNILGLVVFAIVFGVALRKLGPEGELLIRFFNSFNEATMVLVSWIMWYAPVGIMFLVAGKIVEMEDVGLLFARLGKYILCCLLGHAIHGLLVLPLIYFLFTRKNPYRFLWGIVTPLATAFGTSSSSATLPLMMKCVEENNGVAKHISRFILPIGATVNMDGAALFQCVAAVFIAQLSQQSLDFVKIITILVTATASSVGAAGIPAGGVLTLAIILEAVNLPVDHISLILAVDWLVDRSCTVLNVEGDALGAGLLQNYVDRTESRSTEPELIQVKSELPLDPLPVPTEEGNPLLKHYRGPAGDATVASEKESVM

[2] = target: T2, hASCT2 receptor (human type 2 …); assay: flow cytometry on XChASCT2 cells, anti-RGS-His detection

Binder | binding result (hASCT1 receptor) | binding result [1] | binding result [2]
B1 | binds | binds | 
B2 |  |  | binds
